We go through one substance from patent US20160361360A1.

For this assay, the target named is Trop-2 (on Trop-2-expressing HCC1806 cells) (human) (UniProt P09758). The assay is described as follows: cell-based or functional assay.
Chain of UniProt P09758 (P09758 27-323): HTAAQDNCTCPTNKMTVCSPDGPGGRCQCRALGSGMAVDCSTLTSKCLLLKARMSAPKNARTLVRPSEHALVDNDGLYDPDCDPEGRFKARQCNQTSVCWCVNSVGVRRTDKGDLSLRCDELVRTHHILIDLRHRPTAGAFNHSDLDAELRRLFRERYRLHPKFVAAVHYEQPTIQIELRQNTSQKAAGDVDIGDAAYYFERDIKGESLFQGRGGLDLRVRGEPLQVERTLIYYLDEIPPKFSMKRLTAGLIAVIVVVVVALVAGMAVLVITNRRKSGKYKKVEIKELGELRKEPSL

“hRS7-CAR, a human Trop-2-targeting CAR (SPCD8α-VKhRS7-(GGGGS)3-VHhRS7-HingeCD8α-TMCD8α-ICD4-1BB-ICDCD3ζ) (receptor)” displayed a Cytotoxicity by flow cytometry (percent of HCC1806 cells killed, E:T 3:1, 3 h) of 42% and a Specific lysis of HCC1806 cells relative to mock-transfected NK-92MI (flow cytometry, E:T 3:1, 3 h) of 2 fold.
